This data set concerns MS2 coat protein. As to the kind of experiment: apparent KD of MS2 coat protein; designed switch direction (-1 OFF switch, 1 ON switch): -1; higher = weaker reporter binding. In a few lines: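 Designed RNA switches with common flanks were made on Illumina chips by stalled E. coli RNA polymerase. Titration with SNAP-549-labelled MS2 coat protein doubled from 0.7 or 1.5 nM up to 3 µM. Apparent KD is each design's median over clusters after curve-fitting normalised fluorescence.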

The mark [1] stands for this setting: input ligand: microRNA oligo, concentration not stated.
Setting [2] is: Eterna round: R95, input ligand: microRNA oligo, concentration not stated.
[3] abbreviates: Eterna round: R95, input ligand: FMN 200 uM.
[4] abbreviates: Eterna round: R95, input ligand: none.

Regarding “UAUUCGAUAGGAUAUGCACAUCAUUUGGGAGGUAACAGUGCACAUGAGGAUCACCCAUGUAGAAGGAUCUGGAU [Eternabot (L2) Solution 46] (Eterna round: R97, puzzle: Exclusion 2)”, the “apparent KD of MS2 coat protein” value turned out to be 102 nM (input ligand: FMN 200 uM) and 118 nM (input ligand: none).
The like results for “UAUUCGCGAGGAUAUGCAGUCGAGUCCAUUACGUGUCUGGGACUUGAGGAUCACCCAAGUAGAAGGCGUCUCAU [salish99_ex2_r4_642] (Eterna round: R97, puzzle: Exclusion 2)” were, in that order, 124 nM and 123 nM.
On to “UAUUGCAAGUGAGGAUAUGACAUGAGGAUCACCCAUGUAAAGGGAGUUGACUAUAUAGCAAGAUAUCAGAAGGCACAACUGUAU [JR_ExcNG2_Sub004] (Eterna round: R96, puzzle: Exclusion NG 2)”, for which the “apparent KD of MS2 coat protein” value is, setting by setting: (input ligand: FMN 200 uM) 309 nM; under setting [1], 114 nM; (input ligand: none) 131 nM.
As for “UAUUGCAAGUGAGGAUAUGACAUGAGGAUCACCCAUGUAAAGGGAGUUGGCUAUAUAGCAAGAUAUCAGAAGGCACAACUGUAU [JR_ExcNG2_Sub005] (Eterna round: R96, puzzle: Exclusion NG 2)”, the “apparent KD of MS2 coat protein” value was found to be 76.7 nM (input ligand: FMN 200 uM), 25.9 nM under setting [1] and 64.3 nM (input ligand: none).
On to “UAUUUAGCAAGCAGAUCCCACAUGAGGAUCACCCAUGUUCUCUGAAAGUACAGAAUUACUGUACAUGCUCGUCUUAU [Winner reversed engineered 33] (Eterna round: R97, puzzle: Sensor, turn-off variant 1)”, for which the “apparent KD of MS2 coat protein” value (input ligand: FMN 200 uM) worked out at 108 nM and the “apparent KD of MS2 coat protein” value (input ligand: none) is 130 nM.
For “UAUUUAGCAAGCAGAUCCUACAUGAGGAUCACCCAUGUGCUCUGAACGUACAGAAUUACUGUACGAGCUCGUCUUAU [Winner reversed engineered 29] (Eterna round: R97, puzzle: Sensor, turn-off variant 1)”, in that order: 166 nM and 198 nM.
The like results for “UAUUUGCAAGCGAGAUCCCACAUGAGGAUCACCCAUGUUCUUUGAAAGUACAGAAUUACUGUACAAGCUCGUCUUAU [Winner reversed engineered 31] (Eterna round: R97, puzzle: Sensor, turn-off variant 1)” were, in that order, 62.6 nM and 73.4 nM.
Take “UCAAAGCUAGGAUAUACAUGAGGAUCACCCAUGUUAUCACCCAUCGGGUCUUGCUUUUGUAGAAGGAGCAAUAA [Xeinso] (puzzle: Exclusion 3)”: the “apparent KD of MS2 coat protein” value under setting [2] was 25.6 nM.
Still for that read-out and setting: for “UCAAGUAUGUAGGAUAUCGAUGUCUUCGGACAUCGAGAAGGACGUACAUGAGGAUCACCCAUGUAACUUGCAUG [Exclusion 6 - B - 10:a] (puzzle: Exclusion 6)” the value was 55.2 nM.
On to “UCAAGUAUGUAGGAUAUGAUGUGAUUAUACAUAUCAGAAGGACGUACAUGAGGAUCACCCAUGUAACUUGCAUG [Exclusion 6 - B - 12:c] (puzzle: Exclusion 6)”, for which the “apparent KD of MS2 coat protein” value under setting [3] worked out at 29.8 nM, the “apparent KD of MS2 coat protein” value under setting [2] came out at 59.1 nM and the “apparent KD of MS2 coat protein” value under setting [4] came out at 52.6 nM.
For “UCAAGUCCAUAGGAUAUCGACCAGUCCUCUGGAUGAGAAGGAUGAACUUGAGGAUCACCCAAGUGGCCGAAUAA [Aesin] (Eterna round: R97, puzzle: Exclusion 6)”, the “apparent KD of MS2 coat protein” value was 152 nM (input ligand: FMN 200 uM) and 46.3 nM (input ligand: none).
For the sequence “UCAAUUUUGACAGGAUAUAGUUUUUGUUUUUCUCUAGAAGGGUCUUUGCACAUGAGGAUCACCCAUGUUCUUUUUAUUUGCAUU [JR_ExcNG1_Sub015] (Eterna round: R96, puzzle: Exclusion NG 1)”, the “apparent KD of MS2 coat protein” value reads like this: (input ligand: FMN 200 uM) 62.2 nM; under setting [1], 42.3 nM; (input ligand: none) 63.3 nM.
Consider “UCACGGGACUAAGGAUAUAUGAGUACCAUUUACAUAGAAGGUAGAAUGUUAGAUCAUAAACUAAACAUGAGGAUCACCCAUGUU [JR_ExcNG1_Sub092] (Eterna round: R96, puzzle: Exclusion NG 1)”, for which the “apparent KD of MS2 coat protein” value under setting [1] is 15.3 nM.
Take “UCAUGUCCAGAGGAUAUGUAGCGGAUAAACGCAACAGAAGGCUGGACAUGAGGAUCACCCAUGUGUGCCUUCUA [Exclusion 6 Mod3 of JL of Mod of Letion by ViennaUCT] (Eterna round: R97, puzzle: Exclusion 6)”: the “apparent KD of MS2 coat protein” value runs as follows: (input ligand: FMN 200 uM) 81.3 nM; (input ligand: none) 227 nM.
“UCCACACAUGAGGAUCACCCAUGUGAGGAUAUCAUGCUUCGUAGUAAACUACGAAGUGUGAGAAGGCACAUGGC [Omei Ex1 D13] (Eterna round: R97, puzzle: Exclusion 1)”: the “apparent KD of MS2 coat protein” value came to 94.7 nM (input ligand: FMN 200 uM) and 24.9 nM (input ligand: none).
In the case of “UCCACGUAAGGAUAUGGUCAUUGUGACUUGAGGAUCACCCAAGUUGUGAGCUUCCGUCACCCAGAAGGUGCAUGGU [Oratin] (Eterna round: R97, puzzle: Exclusion 5)”, the “apparent KD of MS2 coat protein” value runs as follows: (input ligand: FMN 200 uM) 216 nM; (input ligand: none) 99.9 nM.
For “UCCAUGUCAGGAUAUCCUAGCGCAAAGUUGCCCGCGCUGCUGGAGAAGGGACAUGAGGAUCACCCAUGUCUACA [EX4 C.10] (Eterna round: R97, puzzle: Exclusion 4)”, in that order: 76.8 nM and 23.2 nM.
As to “UCCCGUGAAGGAUAUGGUUACAGGCACAUGAGGAUCACCCAUGUCACCUCGAAUACCUGAUCAGAAGGUUACUCGA [Eternabot (Original) Solution 40] (Eterna round: R97, puzzle: Exclusion 5)”, the “apparent KD of MS2 coat protein” value runs as follows: (input ligand: FMN 200 uM) 20.1 nM; (input ligand: none) 19.9 nM.
For “UCCGAACAUGAGGAUCACCCAUGUCAGGAUAUAUUAAAGAAAGCCCGCGAAUGUGGGUAUAGAAGGGACAUGAA [Zaatinxe] (Eterna round: R97, puzzle: Exclusion 1)”, in that order: 15.8 nM and 15.6 nM.
In the case of “UCCGCCAAAGGAUAUACUGGGCGUUAAAAUCCUCUUAAAAGACAUGAGGAUCACCCAUGUAGAAGGUUGAGGAA [Isererri] (puzzle: Exclusion 2)”, under setting [2], the “apparent KD of MS2 coat protein” value worked out at 201 nM.
“UCCUCACAUGAGGAUCACCCAUGUCAGGAUAUACAAGAAAAUAACCGGAAAGAACGGAGUAGAAGGGACAUAAG [Xeontiorer] (puzzle: Exclusion 1)”: the “apparent KD of MS2 coat protein” value reads like this: under setting [3], 27.4 nM; under setting [2], 15.6 nM; under setting [4], 15.5 nM.
“UCCUUAGCGGUCAGGAUAUACACCCGUUUCUCCUUGUAGAAGGGACAUGAGGAUCACCCAUGUACAGUACAUCU [alecazam64] (Eterna round: R97, puzzle: Brourd's mod of Exclusion 4)”: the “apparent KD of MS2 coat protein” value was found to be 18.6 nM (input ligand: FMN 200 uM) and 17.6 nM (input ligand: none).
As for “UCGCUCCGUGUAGGAUAUCGCCGUACUAUACGGCGAGAAGGACAUGAGGAUCACCCAUGUAUGUUAUUAUCACGCGUGGCGCAA [Design 60] (Eterna round: R96, puzzle: Exclusion NG 1)”, the “apparent KD of MS2 coat protein” value amounted to 21 nM (input ligand: FMN 200 uM), 11.5 nM under setting [1] and 22.2 nM (input ligand: none).

The values above are taken from the supplement of paper PMC9170038.
